# Laboratory results from US11633499B2, “Anti-TMEM-180 antibody, anticancer drug and cancer testing method” (NATIONAL CANCER CENTER JAPAN, priority 2016, dated 2023).
# T1: exosomes presenting TMEM-180 from DLD-1 cell line (Homo sapiens, UniProt Q14CX5)
# T1 construct: endogenous in cells; host or cells: DLD-1 colon cancer cell line (parent / wild type); culture supernatant exosomes in A20
# T1 sequence (Q14CX5 1-517): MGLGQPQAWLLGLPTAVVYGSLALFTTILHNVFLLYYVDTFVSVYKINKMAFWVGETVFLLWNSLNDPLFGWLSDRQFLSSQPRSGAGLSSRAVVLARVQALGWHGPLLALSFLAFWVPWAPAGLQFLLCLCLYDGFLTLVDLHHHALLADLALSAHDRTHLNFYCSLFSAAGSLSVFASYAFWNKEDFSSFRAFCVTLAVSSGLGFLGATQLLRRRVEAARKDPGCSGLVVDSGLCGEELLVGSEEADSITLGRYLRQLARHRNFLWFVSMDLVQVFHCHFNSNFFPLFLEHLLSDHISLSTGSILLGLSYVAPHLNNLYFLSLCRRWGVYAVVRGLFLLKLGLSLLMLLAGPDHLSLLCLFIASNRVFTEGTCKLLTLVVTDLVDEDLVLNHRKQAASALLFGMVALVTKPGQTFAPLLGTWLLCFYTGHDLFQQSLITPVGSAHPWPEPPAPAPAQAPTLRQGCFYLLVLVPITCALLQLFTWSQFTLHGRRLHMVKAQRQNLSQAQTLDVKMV
# B1: clone 669: rat IgM anti-TMEM-180 monoclonal antibody; variable regions SEQ ID NOs: 78 and 79 (antibody, V domains shown)
# VH: MGWICIIFLVATATGVHSQVKLLQSGAALVKPGASVKMSCKASGYTFTDYWVSWVKQSHGKSLEWIGEIYPNSGATNFNENFKGKATLTVDKSTSTAYMELSRLTSEDSAIYYCTRDGTMGIAYYFDYWGQGVMVTVSS
# VL: MMAAVQLLGLLLLWVPAMRCDIQMTQSPSFLSASVGDRVTINCKASQNINRYLNWYQQKLGEAPKLLIYNANSLQTGIPSRFSGSGSGTDFTLTISSLQPEDVATYFCLQHNSWPYTFGAGTKLELK
# Columns and labels:
# [1] = tested on: cell lines derived from cancers (ATCC and JCRB); test: Reactivity of antibodies to cancer-derived cell lines by FACS (Table 23); assay type: binding; settings: Cancer Type: Pancreas
# Wildtype DLD-1 cells = test: Internalization of the antibody; assay type: cell-based, human; settings: 488-labelled antibody; 37° C.; 1, 3 or 6 hours; FIG. 25
# Description: Wildtype DLD-1 cells were plated on a 96-well plate at 5,000 cells/well. The plate was incubated at 37° C. for 18 hours. After washing, a 488-labelled 669 antibody was added to the wells at 2 μL/well and was incubated at 37° C. for certain hours (1 hour, 3 hours, or 6 hours). After the wells were washed three times, a rabbit anti 488 antibody was added at 2 μL/well to stand still at 4° C. for 30 minutes to quench the fluorescence derived from the antibodies binding to the cell surface. After the wells were washed three times, 4% PFA was added at 100 μL/well to stand still at room temperature for 10 minutes. After the wells were washed three times, DAPI (1/500 dilution) was added to the wells at 100 μL/well to stand still at room temperature for 5 minutes. After the wells were washed three times, the wells were subjected to photographing or Array Scan analysis.
# [2] = tested on: cell lines derived from cancers (ATCC and JCRB); test: Reactivity of antibodies to cancer-derived cell lines by FACS (Table 23); assay type: binding; settings: Cancer Type: Colon
# Description: Cancer cells targeted for measurement were cultured in medium and then added to a V-bottom 96-well plate (Corning Incorporated) to a concentration of 1×10^5 cells/well. The plate was centrifuged for 3 minutes at 440×g and 4° C. followed by removing the supernatant, adding antibody-producing hybridoma culture supernatant or antibody solution to the cell pellet at 50 μL/well and suspending therein. After allowing to react for 45 minutes on ice, the plate was washed three times with a mixture of 0.1% BSA, 2 mM EDTA and PBS at 200 μL/well. The supernatant was removed and secondary antibody was added to the cell pellet at 50 μL/well followed by suspending the cells therein. ALEXAFLUOR 647@ (fluorescent compound) goat anti-rat IgG (H-L) (Life Technologies Corporation) was used for the secondary antibody after diluting 400-fold with a mixture of 0.1% BSA, 2 mM EDTA and PBS. After allowing to react for 45 minutes on ice, the plate was washed three times with a mixture of 0.1% BSA, 2 mM EDTA and PBS at 200 μL/well. After removing the supernatant, 50 ng/mL of propidium iodide, 0.1% BSA, 2 mM EDTA and PBS were added to the cell pellet at 250 µL/well followed by suspending therein. The cells stained in this manner were measured using a flow cytometer such as the Guava easyCyte 8HT (Merck Millipore Corporation) followed by analysis of the resulting data using FlowJO (Tomy Digital Biology Co., Ltd.). FACS analysis was carried out using colon cancer, brain tumor and hematologic cancer.
# Cancer-detection rates were tested using monoclonal antibodies (the 669 antibody, 1052 antibody, 1105 antibody, and 1361 antibody).
# In this Example, the reactivity of the antibodies to the cell lines derived from cancers which were obtained from ATCC and JCRB was analyzed by FACS.
# [3] = target: T1, exosomes presenting TMEM-180 from DLD-1 cell line; test: Detection of TMEM-180 exosomes in culture supernatant (immobilized anti-TMEM-180 antibody, anti-CD9 detection); assay type: binding; settings: immobilized antibody 5 μg/mL; detection with anti-CD9 antibody; FIG. 18
# Description: Thus, the inventors constructed a system for detecting exosomes in the culture supernatant. In this system, an anti-TMEM-180 antibody was immobilized on the surface of the plate, and exosomes containing TMEM-180 which were bound to the immobilized antibody were detected with an anti-CD9 antibody which CD9 is an exosome maker. The DLD-1 cell line (also referred to as “wild type DLD-1 cell line”) was used as cells. The TMEM-180 knockdown DLD-1 cell line and K562 cell line were used as negative controls.
# Specifically, an anti-TMEM-180 antibody was diluted with phosphate buffer such that the concentration will be 5 μg/mL, and then added to a 96 well plate (Maxisorp #442404, Thermo Fisher co., Ltd.) at 50 μL/well. The immobilization reaction was performed by incubation for 2 hours at room temperature or for overnight at 4° C. The plate after the immobilization was washed three times with 300 μL/well of a plate washing solution. The plate was blocked with 200 μL/well of a blocking agent (1% BSA/TBS-T), and allowed to stand for 1 hour at room temperature or for overnight at 4° C. […] Then, the optical density at 450 nm was measured with a plate reader.
molecule,measurement,setting,value
B1,"Detection Sensitivity of Cancers, P/N",[1],(3/9)
same,"Detection Sensitivity of Cancers, Percentage (%)",[1],33%
same,internalization into cells,Wildtype DLD-1 cells,concentrated at a high concentration in the cells
same,"Detection Sensitivity of Cancers, P/N",[2],(3/10)
same,"Detection Sensitivity of Cancers, Percentage (%)",[2],30%
same,detection of exosomes presenting TMEM-180 in DLD-1 culture supernatant,[3],successfully detected
